Assay results: the supplement of paper PMC10567573

B1: CROP (parent)
chain: VFGRGDNISDVSKFLEDDKWMEE
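Also: lentivirally expressed fusions sorted by FACS into six bins by GFP to DsRed ratio, PSI derived from sequencing read proportions per bin multiplied by bin number.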

Variants of: B1
Assay: protein stability index of a GFP-peptide fusion (GPS, HEK-293T) (PSI 1-6); higher = more stable
Conditions: c terminus: native
With E23A the protein stability index was 4.36.
E23I showed a protein stability index of 4.38.
Work on E23F yielded a protein stability index of 3.61.
Work on E23L yielded a protein stability index of 3.54.
In the case of D17T, the protein stability index is reported as 2.04.
For D17L, the protein stability index was 1.29.
With D17I the protein stability index was 3.52.
For D17F, the protein stability index was 3.45.
Variant D17V has a protein stability index of 1.
Work on D17H yielded a protein stability index of 1.34.
Variant D17K has a protein stability index of 2.83.
With D17N the protein stability index was 2.26.
With D17R the protein stability index was 2.25.
For D17Q, the protein stability index was 2.
D17Y showed a protein stability index of 2.73.
Work on D17S yielded a protein stability index of 1.52.
Variant D17E has a protein stability index of 2.41.
Variant D17A has a protein stability index of 2.29.
With M21C the protein stability index was 3.53.
M21E showed a protein stability index of 4.
In the case of M21T, the protein stability index is reported as 2.51.
In the case of M21H, the protein stability index is reported as 2.25.
M21D showed a protein stability index of 4.49.
Work on M21I yielded a protein stability index of 1.27.
For M21W, the protein stability index was 1.97.
In the case of M21S, the protein stability index is reported as 2.52.
With M21P the protein stability index was 1.38.
Variant M21Y has a protein stability index of 2.28.
M21N gave a protein stability index of 1.43.
Work on M21Q yielded a protein stability index of 2.94.
Variant M21F has a protein stability index of 2.28.
Work on M21G yielded a protein stability index of 4.04.
M21V showed a protein stability index of 1.87.
Work on M21A yielded a protein stability index of 1.86.
Work on E16A yielded a protein stability index of 2.44.
For E16Q, the protein stability index was 1.95.
E16S showed a protein stability index of 2.03.
For E16G, the protein stability index was 2.4.
Work on E16H yielded a protein stability index of 1.79.
For E16M, the protein stability index was 1.1.
With E16P the protein stability index was 2.12.
E16I showed a protein stability index of 1.65.
In the case of E16T, the protein stability index is reported as 1.66.
E16F gave a protein stability index of 2.42.
With E16V the protein stability index was 2.59.
E16C showed a protein stability index of 1.46.
In the case of E16L, the protein stability index is reported as 2.72.
Work on E16N yielded a protein stability index of 3.11.
Work on E16K yielded a protein stability index of 1.97.
For F14W, the protein stability index was 1.96.
In the case of F14Y, the protein stability index is reported as 2.03.
F14E showed a protein stability index of 4.92.
Work on F14M yielded a protein stability index of 2.42.
Variant F14R has a protein stability index of 3.29.
F14G showed a protein stability index of 2.58.
Variant F14L has a protein stability index of 2.43.
Work on F14S yielded a protein stability index of 4.16.
F14D gave a protein stability index of 3.96.
In the case of F14K, the protein stability index is reported as 4.08.
F14I showed a protein stability index of 3.83.
Work on F14P yielded a protein stability index of 4.07.
With F14H the protein stability index was 4.16.
In the case of F14N, the protein stability index is reported as 3.54.
F14T showed a protein stability index of 4.42.
For F14Q, the protein stability index was 3.34.
F14V showed a protein stability index of 3.01.
K19T showed a protein stability index of 1.92.
With K19M the protein stability index was 1.21.
Work on K19A yielded a protein stability index of 1.27.
In the case of K19N, the protein stability index is reported as 2.35.
K19H showed a protein stability index of 1.91.
For K19G, the protein stability index was 1.95.
Work on K19W yielded a protein stability index of 1.75.
With K19S the protein stability index was 3.53.
For K19R, the protein stability index was 2.5.
Work on K19D yielded a protein stability index of 2.63.
With K19L the protein stability index was 1.89.
Work on K19P yielded a protein stability index of 3.01.
Work on K19C yielded a protein stability index of 1.62.
K19I gave a protein stability index of 2.28.
Variant K19V has a protein stability index of 2.27.
In the case of K19Y, the protein stability index is reported as 2.22.
Variant K19F has a protein stability index of 3.11.
For K19E, the protein stability index was 3.41.
